Data published in a protein production outcome set (Wang et al. 2014).

Experiment: label from the status in PepcDB records

Protein production, not failed:
MRKKKRLISLLLAVFIAVACLPAGIARADKASSIELKFDRNKGEVGDILIGTVRINNIKNFAGFQVNIVYDPKVLMAVDPETGKEFTSSTFPPGRTVLKNNAYGPIQIADNDPEKGILNFALAYSYIAGYKETGVAEESGIIAKIGFKILQKKSTAVKFQDTLSMPGAISGTQLFDWDGEVITGYEVIQPDVLSLGDEPYETPGTDIPISDNPAATPSSTPSVTPSPEVKPTQTPSPAENSAKVELEPVLDNATGEAKAAIDEEKLNKALDEAKKSEDDKLVELNIKKVENADAYIQQLPAKFLIKSDAEYKLRIATEQGIIEVPANMLNTADISKLVKNDSVVEFVIRKVKVDELGAELKEKIGNRPVIDISVVVDGKKVEWSNYKAKVKISIPYKPDAKELENHEHIVVLHIDDAGKAVSVPSGKYEPSLGVVTFETNHLSKYAVSYVYKTFADIGSYAWAKKQIEVLASKGVINGTSDTTFTPQADITRADFMILLVKALGLTAEVTSNFDDVSEKDYYYEYVGIAKELGITTGVGNNKFNPKAKITRQDMMVLTTNALRIAGKISSTGTRADVERFSDKDQIASYAVEGVATLVKEGIVVGSGDIINPRGNASRAELAAIIYKIYYK, MRKPKITVIGGGTGSPVILKSLREKDVEIAAIVTVADDGGSSGELRKNMQQLTPPGDLRNVLVAMSDMPKFYEKVFQYRFSEDAGAFAGHPLGNLIIAGLSEMQGSTYNAMQLLSKFFHTTGKIYPSSDHPLTLHAVFQDGTEVAGESHIVDHRGIIDNVYVTNALNDDTPLASRRVVQTILESDMIVLGPGSLFTSILPNIVIKEIGRALLETKAEIAYVCNIMTQRGETEHFTDSDHVEVLHRHLGRPFIDTVLVNIEKVPQEYMNSNRFDEYLVQVEHDFVGLCKQVSRVISSNFLRLENGGAFHDGDLIVDELMRIIQVKK, MRKRARIIYNPTSGKELFKRVLPDALIKLEKAGYETSAYATEKIGDATFEAERALESEYDLLIAAGGDGTLNEVVNGIAEQPNRPKLGVIPMGTVNDFGRALHLPSDIMGAIDVIIDGHTTKVDIGKMNNRYFINLAAGGKLTQVSYETPSKLKSIVGPFAYYIKGFEMLPQMKAVDVRIEYDDNIFQGEALLFLLGLTNSMAGFEKLVPDAKLDDGYFTLIIVEKANLAELGHIMTLASRGEHTKHPKVIYAKAKSINISSFTDMQLNVDGEYGGKLPANFLNLEQHIEIFTPKDVFNEELLENDTITDITPDKQ, MRLDKFIAQQLGVSRAIAGREIRGNRVTVDGEIVRNAAFKLLPEHDVAYDGNPLAQQHGPRYFMLNKPQGYVCSTDDPDHPTVLYFLDEPVAWKLHAAGRLDIDTTGLVLMTDDGQWSHRITSPRHHCEKTYLVTLESPVADDTAEQFAKGVQLHNEKDLTKPAVLEVITPTQVRLTISEGRYHQVKRMFAAVGNHVVELHRERIGGITLDADLAPGEYRPLTEEEIASVV, MRLFFSLLILLSFFARATEPVQVFTDDLGRKVTVPAHPKRIVSLHDLDITIPLIELGVPPVASHGRTRPDGSHFIRSGALLTGVDFDNSSIAFIGTADIDIEAIVAAKPDLIITEPTRNTPIERLEKIAPTVSIDHLKGGAPEIYRKLAELTGTQSQLAILERRYQAQINALKATLDSQKITVSVIQANQGKINVMHSYHSLGRVLRDAGFRFPPLIESIPEGGRMDVSAERLPELDADFVFATWRGDTGGKPQDELAAMEKVMPGWCQFLTACRSGRYVLISREEAISNSFASLGLMAAQIQSQIAGRPLPEAK

Protein production, failed:
MRIRLLGGLEVMSREHRQVRFTTRKTSLLFAALVLGGRRGYRRELLSETFWPGRSNEQARNSLRQALVDIRRSFPAGGDAPVYIDGDQETVALITGPDETDISIFDRKLEAGRTADLAFAADLYRGEVLAGEAIPDELDEWFGPYRSTYQRKALQLVERLSQALSEPGTAEESACEGLAERLLAMDPTVEAAHRALMQIHALRGHENAALRQFEACRALLRKHLQAEPEAETSSLAASLQSRQGSEHRRTTPGPDPVPQPQAISAPAKHHDRPSVAVLPFQNLSGDAEQEYFADGIVEDITIALAQFRHLYVIARNSSFTYKGQAVDIKQVGRELDVRYVVEGSVRRTGDRLRIAGQLIDTSTGTHLWADRFDGTLANVFDLQDQVASSIVGAITPKVEEAEIERAKRKPTESLDAYDYYLRGLAAFDRTVTNRSVIDEALRLFREAIERDPEFAVAHARAARCYATRKSNGWMLNPADETAEATRLARRAVELGWDDAVALTYGGYVIGYVGGDLDDSAACIDRAVSLNPNLAAALGVSSWVKVCLGEPDKAIEHATLAMRLSPLDPRLFAWQFNIGLAHFCAGHYDDAAVWAGKSLRHQLNYPSAMRVMAASQAMAGRLAQARETIARLCLMDPALRLSNLADVLPPFRRPDDRNRYIEALRMAGLPE, MRISFVGSGKVATHLAKAFAQQHQIIQIMSRNLPHAEKLAHQVGACAIDNYSQIEQEIDLLVIAVSDQSISSVIQAVHVFVPEQLIVHTSGSTDVKILSDIHSNAGVFYPLQTFSFERDIHWSDTPLLIEAEQANSLSILNALANSLTKRVYHYSSTQRLSLHLAAVFACNFSNYCYDMAKQTVDQAQVDFSLLYPLILETAKKATQHDPVQVQTGPAVRHDHNIVELHQNLLLKANRPDLKDIYQRLSQAIIARHHTQP, MRITTLEELLEALDELFDDGSDLTRRGAQDPWERVFSQPGHPLASDLPDACLVDWTRQGLLPSGDGLTALDLGCGLGRNARWLARQGYAVTGLDLSPYAVGQARERTPGPDIRYLEGDVLRDPIPGGPFDVVYDSGCFHHLPPHRRLSYLHTLGQVLRPGGWFGLCTFAWGRMGSAKSDLELLRQGQLEGGVGYTLDDLREMFGGLDFVTGSLLSELEPASEPVFQMDFLQAALFRRPE, MRKDEYRATLLEPNVWHIADYRGDSMYLVVGEEKALLVDTGMGEGDLKGFVRSITEKPVEVVLTHAHWDHIMQANQFEKVYLNHRDFQIIELFKINVNYENFLNVKEGDRFDLGGRTLEVIEVPGHTPGSIVLLDRENRLLFSGDSVGAGHTWMHLPGCLPLREYLKSLKKLKETDSFEKIYHGHLTGTQLKPFGPDYLDDLIKAVEGVIDGSLRGEP, MRKFKISVLLKLGFYCLFLSIGLEMQARKFVHPGILHTTKSIERMRAQIADKEYPAYGSFELLKSHHCSQADYQPFGPFEIISRDGEFRHTKSKMEQDFSAVYQNALMWVLTGEKTHAEKSLELLLGYAGTLKRIPETNDAPLLVGLEGLKIIYATEILRHTYKKMTVVQFNEISRMIREVFLPVMENFYHRKPYTNGNWGPIVTKAYMAAAILWDNEEMYNKAVDFYLHANDNGTIAHYISGDTGQIQESGRDQGHSMLGIGALATVCEIAWQQGDDLYSALDNRLMKGFEYVAKYNLGYNVPFAVWKDVTGKYSNWTEISNKGRGRYMPIFEMTYNHFVIRKGMQMPYTEQVLRQIRPEGYDRDQPAFGSLLFNEAGTKKNYVDLVNPFVDSHRSRWFFFSSACRPFGMVSLSPDTDTEHSWGSGYLYDSKQIRCFSHVHNWQMSGVAVMPTVGEFKGHLGMNAYQSAFTHDGEIAKPGYHKVKLTDYDITAELTSTMRVGFHCYTFPKSDASYILFDTGAFLAHGPTAYSEVWKVSDKEIAGWEMMERTGRRPKDTPVYFYAQLSKPMDKVVSWREGRIESNSNPERISGKNAGMAVRFKTEKDEKVMLKVAISYVSVEQARKNMLTELSGWDFEQVKQSSFSEWNDWLGRIEVEGGSREQQIKLYTDLWHALLGRHVVSDADGHYMDMTSDFPRIRQIPLGEDGKPLYNHHNFDAWWGSHWSLNILWSMAYPEVMDNFCNTMIDMYQNGGLIPRGPSGGNYTYVMIGDPAVSFFASAYNKGIRNYDAELAYEGLRKNAFVGGIRDHAGYEHSKTAYSGGMKYYEEWGYVPDGRKDVEGMHTTGASMTLEYAYQDWCLAQMAKTMGKLQDYEFFMKRSKNYRNLWNPESGYMQPRGEDGNWLPYFDPLELTEKGGFCESNSAIYSHYVPHDMAGLIELYGGADQYVKRLNANFEKSESYGFFRSNKTKEGNWTDYGNQPGTGMAHLFSYAGAPWLTQKWVRKVKAAYCDVTPYGGYRDDEDQGQMGALGVLMAIGLFEVDGGCAEKPFYEITSPLFDKVTIHLDNRYYSGKTFQIITKGNSTDNMYIQNASLNGKKWNKCWFYHEDFIKGGTLELKLGAKPNKKWGVEELPPSFISSK, MRKLWPLALLLAACGAQDVGAGLDPLRLTATSLPPAYLGEPYSASLAAEGGVRPYSFTLDGKLPEGLSFQGGRLFGVPKEKGSFPLLLTVEDAAKNSRAQRLTLTVSDPPPPRLALVLPPAQVEGPFLLLARVEGREAVGFQMEVRLADLEPDLAGLKALSPAHLLDYDPATRLLRLDMAFAKPVKDREAFRLLLTPQKPLVPRLSPKVVFYDKEGKPLGQPLPRGKPFAELLRLAQAWGREGKALKEDLDGDGKVGEADLRLLAQDYFPKPETPSPEAPGGGEGQASGEEQARLEHHHHHH, MRKNHYPLRGYISTNRSKHNLKAHLILVCKYRKKLLQGDLNNFIKSVIDEIATQSNFIIIAMESDIDHLHLMVQYIPRMSISSIISRIKQITTYRVWRDKRFIPLLQKHFWKEKTFWTDGFFVCSIGEANPETIKAYIENQG, MRKRGIMSKRLLAVLCMASVTTSLFSFRGLEVKASPNVPYDQKESLAPLGEVYSIETLLNWTPESDPDAKYNRASIELQDRFMGDIVNENANPEAKIMNVALTNPYVDRAPSQGSDSMDAYVFSYWQYVNSYVYWGGSSRGIFALPTPDVVDNAHKNGVPVLATIGFPWGPGEGYVEQVRAFLQKDNNGNFPVADKMIEIAEYYGFDGYFFNQESYGCVKDDADRMVEMLEYIKKKAPNMVIGWYDSMTVDGNVKWQDALNDKNAAFFQNGENRTTDEFFLNYNWTPEKIETTVNTAKSLGRSPFDVYAGLDVQQNAYNTPFNDDYLLDENGKLRLSLAMYTPNSTFSMAKDVYDFYKHDQKFWVGPTGDPSKSDTEQDWTGLANYVPDRSAINDLPFVTNFNLGHGEDYYIDGSLSRDEEWNNRAMQEYLPTWRWIVESNGSKLTPDFDFKTAYNGGSSLKVEGKLEAANPNHIKLYSTDLNIENNSTELSIVYKTESAPNMKVGLCFGENYDEENFTFFDVNKNSNGEWTEVKIPLGDHVGKTISAISLKFESGQDVENFKINVGQISIEETAENNKGLKNSDVILEETMVHNSNSAEARIYWNGLESGNEDDLAFYEIYRIKPDGSRELMGATPNDAYYVQEFERYGEEMEFDIEVVPVDVNYNRGEGKRVTFNWGIPHDATQIPDKKVYENLALYKSVQTSAEGAAEPGLKAVDGKVDNNSKWCAAGAKDGWLTIDLGEPKNIQRWVVKHAEAGGEAKDMNTKDFALEVSYDGGQTYQEVDVVTGNEDAITDRNLENPIVAQHLRLRIDNSGSSPWAAIRIYEFQLYEETFTDQTTEIPMRFVNAKNNKGANDSVLFTRGKEGQTVNLYKGLNDETPFATATIDSNGEAKFEGLDFGEDGGRVYYGTVEEGKRESLRMSAAFEGENWEYSKVPERFELTPYKAPGMNGENHNYGTLKINDLEAGDIVSIFNDKDSIFPEKVSVPVAKGGDTAILDRISINPEGGVLTLEVKSEGKKARRIEVPYSGFGEIEMKIESEAPTNLRTVDVQKKSVSLAWDSPENTYGLEGYIIYKDNKKVGEVSADETEFTVGKLNRHTIYNFKVAAKYSNGEISKRDTITVRTAR, MRKRIFWLLPDLASARRTMDDLLLARIENSHIHFVGRDGADMTGLHEANLFQTSDIVHAAEMGLMVGGGVGIVAGVVVAMFPIVSDSPQWGLVGVLAVLGAVFGAWAASMIGSSAPNSRLRSFEKDIEAGKLLLMVDVPRGRVEEVEALLQKAHPEASFAGLDPAVPAFP, MRLLACWTDVHHRHAPMTAHDLPRQAFLRGAVAILPLSLAVAPWGLLAGSMAIEANLTPAEGQGLSAIVFAGAAQLVAIGMLKGGAGFFSIIFTTLLLTSQHLLYGMSLRPVLSPLPGRWRIGLGFLLTDEFFALASQHDRRNFNRWYALGVGLTFYIAWNLFTLAGILLGRSIPGLEHLGLDFSIAATFIALVAPLVRNVPTLVCVATSLFCSVLFSHWQWSSALVLAGLAGMAAGFICNKLYREAPWSGQ
